T1: soluble LIFR (LIF receptor) (UniProt P42702 45-833, limits assumed, 35S-labelled in the test of FIG. 1B)
T1 construct: also called LIFR marked with 35S
T1 sequence (looked up): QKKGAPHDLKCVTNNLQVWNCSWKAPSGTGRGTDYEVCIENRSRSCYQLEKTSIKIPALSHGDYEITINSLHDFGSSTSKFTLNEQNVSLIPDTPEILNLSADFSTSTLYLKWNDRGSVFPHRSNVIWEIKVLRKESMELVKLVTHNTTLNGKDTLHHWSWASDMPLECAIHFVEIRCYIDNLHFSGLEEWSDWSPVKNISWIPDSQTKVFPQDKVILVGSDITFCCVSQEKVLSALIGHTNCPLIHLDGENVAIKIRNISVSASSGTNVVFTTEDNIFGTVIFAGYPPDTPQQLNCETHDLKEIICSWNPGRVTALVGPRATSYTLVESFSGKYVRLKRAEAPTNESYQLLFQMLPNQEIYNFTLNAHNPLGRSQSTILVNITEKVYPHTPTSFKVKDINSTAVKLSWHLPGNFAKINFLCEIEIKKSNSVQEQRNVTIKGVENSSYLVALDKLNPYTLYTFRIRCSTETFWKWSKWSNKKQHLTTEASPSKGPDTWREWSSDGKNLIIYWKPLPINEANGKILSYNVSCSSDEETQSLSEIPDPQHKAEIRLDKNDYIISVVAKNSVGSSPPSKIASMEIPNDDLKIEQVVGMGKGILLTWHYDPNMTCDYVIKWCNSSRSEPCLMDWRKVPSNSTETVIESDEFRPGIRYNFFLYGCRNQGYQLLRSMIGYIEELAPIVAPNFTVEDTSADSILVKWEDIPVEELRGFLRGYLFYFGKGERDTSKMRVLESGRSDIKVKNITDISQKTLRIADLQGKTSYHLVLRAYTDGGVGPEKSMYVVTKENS

T2: CNTFRα-myc (soluble extracellular domain of the CNTFRα receptor) (UniProt P26992 23-342)
T2 construct: extracellular domain; Captured on plates or protein A-Sepharose through the anti-myc antibody 9E10; also called CNTF receptor α; soluble CNTFRα receptor
T2 sequence (looked up): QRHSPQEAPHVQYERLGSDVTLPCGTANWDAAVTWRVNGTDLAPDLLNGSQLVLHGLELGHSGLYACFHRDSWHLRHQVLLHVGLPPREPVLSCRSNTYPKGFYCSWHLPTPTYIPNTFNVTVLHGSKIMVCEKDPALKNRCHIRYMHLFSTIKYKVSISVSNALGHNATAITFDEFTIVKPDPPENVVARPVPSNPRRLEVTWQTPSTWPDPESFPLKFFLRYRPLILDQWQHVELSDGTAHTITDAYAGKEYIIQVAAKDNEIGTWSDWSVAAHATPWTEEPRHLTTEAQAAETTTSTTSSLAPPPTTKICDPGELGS

T3: cellular LIF receptor on HepG2 cells (human, UniProt P42702 45-1097)
T3 sequence (looked up): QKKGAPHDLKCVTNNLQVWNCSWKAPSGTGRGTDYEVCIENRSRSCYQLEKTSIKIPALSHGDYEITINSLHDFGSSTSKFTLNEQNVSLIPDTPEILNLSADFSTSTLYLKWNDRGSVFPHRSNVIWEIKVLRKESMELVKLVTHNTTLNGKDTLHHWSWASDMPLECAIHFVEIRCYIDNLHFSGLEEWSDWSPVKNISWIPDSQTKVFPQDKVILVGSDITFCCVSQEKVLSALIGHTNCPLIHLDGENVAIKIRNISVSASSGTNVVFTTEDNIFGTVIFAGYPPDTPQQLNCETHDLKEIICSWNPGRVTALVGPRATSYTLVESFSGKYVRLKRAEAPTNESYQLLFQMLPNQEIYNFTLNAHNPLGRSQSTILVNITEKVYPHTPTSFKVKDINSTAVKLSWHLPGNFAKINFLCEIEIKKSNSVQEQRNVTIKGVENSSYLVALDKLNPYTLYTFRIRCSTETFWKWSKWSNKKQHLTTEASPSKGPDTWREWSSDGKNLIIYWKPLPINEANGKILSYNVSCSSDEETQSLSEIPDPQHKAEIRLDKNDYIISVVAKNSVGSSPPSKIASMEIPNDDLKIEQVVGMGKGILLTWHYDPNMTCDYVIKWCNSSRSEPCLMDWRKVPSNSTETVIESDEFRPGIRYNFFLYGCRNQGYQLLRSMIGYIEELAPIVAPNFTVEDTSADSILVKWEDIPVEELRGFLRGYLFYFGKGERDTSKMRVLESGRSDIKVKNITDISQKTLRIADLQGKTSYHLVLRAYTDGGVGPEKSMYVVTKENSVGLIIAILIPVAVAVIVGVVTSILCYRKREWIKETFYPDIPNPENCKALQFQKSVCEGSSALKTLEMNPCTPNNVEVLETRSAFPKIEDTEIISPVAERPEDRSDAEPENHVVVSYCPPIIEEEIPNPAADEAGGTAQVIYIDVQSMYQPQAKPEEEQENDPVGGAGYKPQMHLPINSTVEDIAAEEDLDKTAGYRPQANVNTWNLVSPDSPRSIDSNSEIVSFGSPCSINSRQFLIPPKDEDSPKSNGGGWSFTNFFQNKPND

T4: membrane-bound CNTFRα receptor on IMR-32 cells (human, UniProt P26992 23-342)
T4 sequence (looked up): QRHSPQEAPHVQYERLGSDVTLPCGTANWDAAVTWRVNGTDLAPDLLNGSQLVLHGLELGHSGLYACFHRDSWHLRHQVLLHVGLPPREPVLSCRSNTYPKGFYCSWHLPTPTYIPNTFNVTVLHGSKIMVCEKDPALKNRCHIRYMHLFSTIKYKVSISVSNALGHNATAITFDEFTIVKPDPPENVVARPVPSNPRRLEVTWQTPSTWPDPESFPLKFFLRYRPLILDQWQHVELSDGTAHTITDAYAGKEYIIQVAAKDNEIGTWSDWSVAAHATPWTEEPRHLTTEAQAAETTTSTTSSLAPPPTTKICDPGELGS


Tests used:
[1] = target: T1, soluble LIFR (LIF receptor); test: immunoprecipitation of 35S-LIFR with immobilised soluble CNTFRα and variant, SDS-PAGE (FIG. 1B)
Experimental: It is known from the literature that the molecules gp130 and LIFR are able to bind independently to the CNTF/CNTFRα complex (11). To assess the functional importance of D1 motif residues the ability of CNTF variants to assemble receptor complexes with the different subunits was assayed. Bonding of the cytokine/CNTFRα complex to gp130 or LIFR marked with ^35S was determined using immunoprecipitation tests as described in the literature (11). The soluble CNTFRα receptor was immobilised on A-Sepharose protein using the monoclonal antibody 9E10 anti-myc and incubated with soluble gp130 or LIFR marked with sulphur ^35S, in the absence or in the presence of different amounts of CNTF variants (1 or 0.1 mg). After washing, the bound material was eluted and subjected to SDS-PAGE.

[2] = target: T2, CNTFRα-myc (soluble extracellular …); test: solid-phase competition with biotinylated CNTF or biotinylated MUT-DH for immobilised CNTFRα-myc, soluble gp130 present
Experimental: The ability of CNTF variants to compete with biotinylated CNTF ([…]) for binding to the extracellular domain of the CNTFRα receptor was determined in a solid-phase binding assay, in the presence of soluble gp130, as described in preceding publications (19). "Microtiter" 96-well polystyrene culture plates were covered with […] of 50 mM sodium carbonate pH 9.5, containing […] of the monoclonal antibody 9E10, which is directed against a c-myc epitope, and the plates are then preserved at 4° C. for one night. The wells were then washed out five times with TBS (50 mM Tris-HCl, pH 7.5, 150 mM NaCl) containing 0.05% Tween and held for 90 minutes at room temperature in TBSMT (50 mM Tris-HCl, 150 mM NaCl, 5% (w/v) lyophilised non-fat milk). All subsequent incubations were carried out at room temperature on a mixer at a speed of 700 rpm, after each incubation period the wells were washed with TBS containing 0.05% Tween (five times each time). The following incubation periods were performed: (1) 2 hours with […] TBSMT containing […] of CNTFRα-myc; (2) 1 hour with […] of TBSMT containing 200 ng of gp130-flag, 5 nM biotinylated CNTF, and the various competitors and (3) 45 minutes with […] of TBS, 5% (w/v) of bovine serum albumin, 0.05% (v/v) Tween 20 containing 0.8 mg/ml avidin conjugated with alkaline phosphatase.
The alkaline phosphatase activity was determined at 37° C. using 1 mg/ml p-nitrophenyl phosphate in 1 M of diethanolamine-HCl, pH 9.8, and absorbancy at 405 nm was measured after 40–60 minutes using a suitable reader. In some experiments the biotinylated MUT-DH variant molecule (0.5 nM) as used as a ligand.

[3] = target: T3, cellular LIF receptor on HepG2 cells; test: cell-based or functional assay
[4] = target: T4, membrane-bound CNTFRα receptor on …; test: cell-based or functional assay

binding result [1]	Relative Binding ((IC50 of CNTF)/(IC50 of tested protein)) [2]	haptoglobin secretion by HepG2 cells, without soluble CNTFRα (FIG. 2A) [3]	inhibition of Chat activity induced by a subsaturating dose of CNTF in IMR-32 cells (FIG. 4B) [4]	Binder
	41 ratio			MUT-DH (Ser166Asp/Gln167His/CNTF) (ligand, human, UniProt P26441 1-200, looked up, also called DH-CNTF; S166D/Q167H/CNTF) MAFTEHSPLTPHRRDLCSRSIWLARKIRSDLTALTESYVKHQGLNKNINLDSADGMPVASTDQWSELTEAERLQENLQAYRTFHVLLARLLEDQQVHFTPTEGDFHQAIHTLLLQVAAFAYQIEELMILLEYKIPRNEADGMPINVGDGGLFEKKLWGLKVLQELDHWTVRSIHDLRFISSHQTGIPARGSHYIANNKKM
no binding (tested: 1 or 0.1 mg)	32 ratio	~20 % with respect to the maximum value		Phe152Ala/MUT-DH (ligand, human, UniProt P26441 1-200, looked up, also called AKDH-CNTF; AK/DH) MAFTEHSPLTPHRRDLCSRSIWLARKIRSDLTALTESYVKHQGLNKNINLDSADGMPVASTDQWSELTEAERLQENLQAYRTFHVLLARLLEDQQVHFTPTEGDFHQAIHTLLLQVAAFAYQIEELMILLEYKIPRNEADGMPINVGDGGLAEKKLWGLKVLQELDHWTVRSIHDLRFISSHQTGIPARGSHYIANNKKM

More lines, now with the values behind:

Binder	binding result [1]	Relative Binding ((IC50 of CNTF)/(IC50 of tested protein)) [2]	haptoglobin secretion by HepG2 cells, without soluble CNTFRα (FIG. 2A) [3]	inhibition of Chat activity induced by a subsaturating dose of CNTF in IMR-32 cells (FIG. 4B) [4]
Lys155Ala/MUT-DH (ligand, human, UniProt P26441 1-200, looked up, also called FADH-CNTF; FA/DH) MAFTEHSPLTPHRRDLCSRSIWLARKIRSDLTALTESYVKHQGLNKNINLDSADGMPVASTDQWSELTEAERLQENLQAYRTFHVLLARLLEDQQVHFTPTEGDFHQAIHTLLLQVAAFAYQIEELMILLEYKIPRNEADGMPINVGDGGLFEKALWGLKVLQELDHWTVRSIHDLRFISSHQTGIPARGSHYIANNKKM	no binding (tested: 1 or 0.1 mg)	42 ratio	~20 % with respect to the maximum value	
Phe152Ala/Lys155Ala/MUT-DH (ligand, human, UniProt P26441 1-200, looked up, also called AADH-CNTF; AA/DH) MAFTEHSPLTPHRRDLCSRSIWLARKIRSDLTALTESYVKHQGLNKNINLDSADGMPVASTDQWSELTEAERLQENLQAYRTFHVLLARLLEDQQVHFTPTEGDFHQAIHTLLLQVAAFAYQIEELMILLEYKIPRNEADGMPINVGDGGLAEKALWGLKVLQELDHWTVRSIHDLRFISSHQTGIPARGSHYIANNKKM	no binding (tested: 1 or 0.1 mg)	51 ratio		70 fold excess over CNTF for 50% inhibition
Lys155Ala/CNTF (ligand, human, UniProt P26441 1-200, looked up, also called FA-CNTF) MAFTEHSPLTPHRRDLCSRSIWLARKIRSDLTALTESYVKHQGLNKNINLDSADGMPVASTDQWSELTEAERLQENLQAYRTFHVLLARLLEDQQVHFTPTEGDFHQAIHTLLLQVAAFAYQIEELMILLEYKIPRNEADGMPINVGDGGLFEKALWGLKVLQELSQWTVRSIHDLRFISSHQTGIPARGSHYIANNKKM		1 ratio	~20 % with respect to the maximum value	
human ciliary neurotrophic factor (hCNTF) (ligand, UniProt P26441 1-200, looked up, also called wild-type CNTF; wt) MAFTEHSPLTPHRRDLCSRSIWLARKIRSDLTALTESYVKHQGLNKNINLDSADGMPVASTDQWSELTEAERLQENLQAYRTFHVLLARLLEDQQVHFTPTEGDFHQAIHTLLLQVAAFAYQIEELMILLEYKIPRNEADGMPINVGDGGLFEKKLWGLKVLQELSQWTVRSIHDLRFISSHQTGIPARGSHYIANNKKM		1 ratio		
Phe152Ala/Lys155Ala/hCNTF (ligand, human, UniProt P26441 1-200, looked up, also called Phe152Ala/Lys155Ala/CNTF; AA-CNTF) MAFTEHSPLTPHRRDLCSRSIWLARKIRSDLTALTESYVKHQGLNKNINLDSADGMPVASTDQWSELTEAERLQENLQAYRTFHVLLARLLEDQQVHFTPTEGDFHQAIHTLLLQVAAFAYQIEELMILLEYKIPRNEADGMPINVGDGGLAEKALWGLKVLQELSQWTVRSIHDLRFISSHQTGIPARGSHYIANNKKM		0.9 ratio		

Source: patent US6756357 (ISTITUTO DI RICHERCHE DI BIOLOGIA MOLECOLARE DI ANGELETTI S …, dated 2004)
